The record followed here is patent US20250041416A1 (Innovent, published 2025).

Test [1] concerns the target T1, Human BCMA-IHM (human, UniProt Q02223 1-54, limits assumed).
T1 construct: any tag or fusion partner is unknown
T1 sequence (looked up): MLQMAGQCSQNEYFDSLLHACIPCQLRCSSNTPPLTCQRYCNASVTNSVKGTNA
Description: Biacore (SPR), Fab, human BCMA-IHM, monovalent. In general terms: In SPR one partner is held on a chip, and binding of the other changes the refractive index at the surface.

Test [2] concerns the target T2, Human BCMA on cells (human, UniProt Q02223 1-184).
T2 construct: whole, on cells; also called hBCMA-CHO GS; Human BCMA CHO-S
T2 sequence (looked up): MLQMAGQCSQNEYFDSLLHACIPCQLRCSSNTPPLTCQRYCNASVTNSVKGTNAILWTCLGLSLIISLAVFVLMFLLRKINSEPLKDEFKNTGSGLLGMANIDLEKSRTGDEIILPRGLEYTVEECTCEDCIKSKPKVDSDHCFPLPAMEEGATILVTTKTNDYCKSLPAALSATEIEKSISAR
Put plainly: cell binding on H929 cells (human BCMA).

The target of test [3] is T2, Human BCMA on cells. Description: cell binding on human BCMA CHO-S cells.
Test [4] concerns the target T3, ADI-38497 WT antibody.
T3 construct: also called WT BCMA antibody
Description: SPR (Biacore T200), avidity format: ADI-38497 WT IgG captured on anti-Fab IgG on an HLC chip, anti-PG scFv fusion protein in the mobile phase. Here is the method: The assay procedure was performed using a 10-fold dilution of 10×HBS-EP+(BR-1006-69, Cytiva) as the experimental buffer. […] A gradient dilution of anti-PG scFv (concentration gradient of 1.25 nM-40 nM, 2-fold dilution) was flowed over the chip surface from low to high concentration in a flow rate of 30 μl/min, with an association time of 180 s and a dissociation time of 300 s. Finally, the chip was regenerated with 10 mM glycine-HCl, pH 1.5 (BR-1003-54, Cytiva).
The data results were analyzed by Biacore T200 analysis software (version 3.1) using a 1:1 binding model.

Test [5] has as its target T1, Human BCMA-IHM. Put plainly: ForteBio (BLI), IgG, human BCMA-IHM, monovalent.
The target of test [6] is Cynomolgus monkey BCMA-Fc (cynomolgus monkey, UniProt A0A2K5UD97 1-53). Put plainly: ForteBio (BLI), IgG, cynomolgus monkey BCMA-Fc, avid.
Cynomolgus monkey BCMA-Fc, sequence (A0A2K5UD97 entry or part of it): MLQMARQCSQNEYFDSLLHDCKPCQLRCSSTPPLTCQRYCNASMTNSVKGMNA

B1: ADI-38497 Fab (Fab, V domains shown)
VH: QLQLQESGPGLVKPSETLSLTCTVSGGSIVSSSYYWTWIRQPPGKGLEWIGSISIAGSTYYNPSLKSRVTISVDTSKNQFSLKLSSVTAADTAVYYCARDRGDQILDVWSQGTMVTVSS
VL: DIQMTQSPSSLSASVGDRVTITCRASQSISRYLNWYQQKPGKAPKLLIYAASSLQSGVPSRFSGSGSGTDFTLTISSLQPEDFATYYCQQKYFDITFGGGTKVEIK
By Kd is commonly meant the free concentration of one partner at which half of the binding sites on the other are occupied at equilibrium, for simple one-to-one binding. In test [1], B1 gave a Kd of 0.104 nM.

B2: ADI-34861 (antibody, V domains shown)
VH: QLQLQESGPGLVKPSETLSLTCTVSGGSISSSSYYWGWIRQPPGKGLEWIGSISYSGSTYYNPSLKSRVTISVDTSKNQFSLKLSSVTAADTAVYYCARDRGDTILDVWGQGTMVTVSS
VL: DIQMTQSPSSLSASVGDRVTITCRASQSISRYLNWYQQKPGKAPKLLIYAASSLQSGVPSRFSGSGSGTDFTLTISSLQPEDFATYYCQQKYFDITFGGGTKVEIK
notes: also called BCMA parent antibody ADI-34861
Regarding B2, the “Cell Binding, FON (Fold Over Negative)” value in test [2] was determined as 6 fold. The “Cell Binding, FOB (Fold Over Background)” value in test [3] turned out to be 4 fold.

B3: ADI-38497 (IgG as tested in Table 2) (antibody, V domains shown)
VH: QLQLQESGPGLVKPSETLSLTCTVSGGSIVSSSYYWTWIRQPPGKGLEWIGSISIAGSTYYNPSLKSRVTISVDTSKNQFSLKLSSVTAADTAVYYCARDRGDQILDVWSQGTMVTVSS
VL: DIQMTQSPSSLSASVGDRVTITCRASQSISRYLNWYQQKPGKAPKLLIYAASSLQSGVPSRFSGSGSGTDFTLTISSLQPEDFATYYCQQKYFDITFGGGTKVEIK
In the case of B3, in test [2], the “Cell Binding, FON (Fold Over Negative)” value is 26 fold. Further, the “Cell Binding, FOB (Fold Over Background)” value in test [3] turned out to be 8 fold.

B4: anti-P329G mutation-specific single chain antibody-rabbit Fc fusion protein (Fc fusion)
chain: EVQLVESGGGLVQPGGSLRLSCAASGFTFSRYWMNWVRQAPGKGLEWVGEITPDSSTINYAPSLKGRFTISRDNAKNSLYLQMNSLRAEDTAVYYCARPYDYGAWFASWGQGTLVTVSSGGGGSGGGGSGGGGSGGGGSQAVVTQEPSLTVSPGGTVTLTCRSSTGAVTTSNYANWVQEKPDHLFTGLIGGTNKRAPGTPARFSGSLLGGKAALTLSGAQPEDEAEYYCALWYSNHWVFGGGTKLTVLGGGGSSKPTCPPPELLGGPSVFIFPPKPKDTLMISRTPEVTCVVVDVSQDDPEVQFTWYINNEQVRTARPPLREQQFNSTIRVVSTLPIAHQDWLRGKEFKCKVHNKALPAPIEKTISKARGQPLEPKVYTMGPPREELSSRSVSLTCMINGFYPSDISVEWEKNGKAEDNYKTTPAVLDSDGSYFLYSKLSVPTSEWQRGDVFTCSVMHEALHNHYTQKSISRSPGK
notes: scFv of the P329G CAR extracellular domain fused to rabbit Fc; also called anti-PG scFv fusion protein; anti-PG scFv
For the molecule B4, the binding result in test [4] is given as “no binding”.

B5: ADI-38484 (IgG as tested in Table 2) (antibody, V domains shown)
VH: QVQLVQSGAEVKKPGSSVKVSCKASGGTFSNDVISWVRQAPGQGLEWMGVIIPIFGIANYAQKFQGRVTITADESTSTAYMELSSLRSEDTAVYYCARGRGYYSSWLHDIWGQGTMVTVSS
VL: DIQMTQSPSSLSASVGDRVTITCQASQDITNYLNWYQQKPGKAPKLLIYDASNLETGVPSRFSGSGSGTDFTFTISSLQPEDIATYYCQQAFDLITFGGGTKVEIK
For the molecule B5, in test [2], the “Cell Binding, FON (Fold Over Negative)” value was 35 fold. Besides, in test [3], the “Cell Binding, FOB (Fold Over Background)” value was 11 fold.

B6: ADI-38484 Fab (Fab, V domains shown)
VH: QVQLVQSGAEVKKPGSSVKVSCKASGGTFSNDVISWVRQAPGQGLEWMGVIIPIFGIANYAQKFQGRVTITADESTSTAYMELSSLRSEDTAVYYCARGRGYYSSWLHDIWGQGTMVTVSS
VL: DIQMTQSPSSLSASVGDRVTITCQASQDITNYLNWYQQKPGKAPKLLIYDASNLETGVPSRFSGSGSGTDFTFTISSLQPEDIATYYCQQAFDLITFGGGTKVEIK
Take B6: the Kd in test [1] was determined as 0.0132 nM.

B7: ADI-34857 (antibody, V domains shown)
VH: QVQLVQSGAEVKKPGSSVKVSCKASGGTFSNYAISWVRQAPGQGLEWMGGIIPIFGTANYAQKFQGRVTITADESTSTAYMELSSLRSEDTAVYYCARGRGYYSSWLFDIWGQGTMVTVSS
VL: DIQMTQSPSSLSASVGDRVTITCQASQDITNYLNWYQQKPGKAPKLLIYDASNLETGVPSRFSGSGSGTDFTFTISSLQPEDIATYYCQQAFDLITFGGGTKVEIK
notes: also called BCMA parent antibody ADI-34857
Turning to B7, in test [2], the “Cell Binding, FON (Fold Over Negative)” value was 5 fold. For the same molecule, the “Cell Binding, FOB (Fold Over Background)” value in test [3] was found to be 2 fold. Further, the dissociation constant (Kd) in test [5] turned out to be 27.7 nM; in test [6], 5.93 nM.
